Laboratory results: paper PMC9233703

Legend:
[1] = biological target: bovine brain tubulin polymerized into the microtubule lattice (bovine) (UniProt Q6B856); experiment: optical tweezer force spectroscopy; taxol-stabilized microtubules copolymerized with biotinylated tubulin, affixed to neutravidin-coated coverslip; single tubulin pulled by its α-tubulin CTT through an 8.2 kb DNA linker and an anti-digoxigenin bead, perpendicular to the microtubule axis; constant pulling velocity 0.32 μm/s; BRB80, 10 μM taxol
[2] = biological target: bovine brain tubulin polymerized into the microtubule lattice (bovine) (UniProt Q6B856); experiment: motor-pulling assay (TIRF microscopy); GDP-microtubules with GMPCPP-tubulin caps held on the surface by anti-digoxigenin antibody; tubulin with 3.8 kb biotinylated DNA linker pulled along the microtubule axis by biotinylated kinesin-1 (0.5-9 nM) joined via neutravidin; 1 mM ATP, SYTOX Green, 28 °C
[3] = biological target: bovine brain tubulin polymerized into the microtubule lattice (bovine) (UniProt Q6B856); experiment: motor-pulling assay (TIRF microscopy); taxol-stabilized microtubules, 10 μM taxol, held by digoxigenin-labeled tubulin; 3.8 kb biotinylated DNA linker; 6 nM biotinylated kinesin-1; 1 mM ATP, 28 °C

Substance: bovine brain tubulin labeled with an oligo-DNA handle on the α-tubulin C-terminal tail (SSL method), hybridized to a long DNA linker (from UniProt Q6B856 1-445) (complex)
- force typically required to remove tubulin from the lattice [1]: 30 pN
- lifetime in the lattice at zero force estimated from the rupture force histogram (Dudko method, single-step extraction) [1]: 40 s
- rupture force [1]: 33.8 pN
- decay time of the rupture-time histogram (4.5-9 nM biotinylated kinesin) [2]: 8.8 s
- median rupture time under pulling by kinesin-1 (plateau at high kinesin concentration) [2]: 8 s
- percentage of DNA remained on the microtubules after 5 min with 6 nM biotinylated kinesin-1 [2]: 59%
- median rupture time under pulling by kinesin-1 (6 nM) [3]: 18 s
